Self-cleavage data for 167 variants are collected here from the RNAGym collection of RNA variant scans (doi:10.7554/elife.90254).

B1: LINE1-mini (parent)
chain: GGCAGAGCUCAACACAGCGUGGCAAAGUGGCUGUGGCUAGACUGCC

The variants in the data set derive from B1. The data set is described as follows: self-cleavage, relative activity (ratio to wild type); higher = more cleavage; in vitro, sequencing; the parent is a self-cleaving ribozyme.
On to C10U A24G, for which the self-cleavage amounted to 0.35.

Take A11G C18U: the self-cleavage was 0.04.

On to A11G C18G, for which the self-cleavage is 0.02.

For A11G C18A, the self-cleavage was 0.04.

With A11G U28A, the self-cleavage was determined as 0.03.

For the variant A11G U28G, the self-cleavage was determined as 0.02.

In the case of A11G U28C, the self-cleavage was determined as 0.03.

A11C C15G: the self-cleavage is 0.02.

For A11C C15A, the self-cleavage came to 0.02.

Turning to A11C C15U, the self-cleavage stood at 0.03.

In the case of A11C G36U, the self-cleavage worked out at 0.01.

As for A11C G36C, the self-cleavage amounted to 0.03.

Turning to A11C G36A, the self-cleavage was found to be 0.04.

For the variant A11G C23G, the self-cleavage was found to be 0.03.

For the variant A11G C23A, the self-cleavage came out at 0.04.

A11G C23U: the self-cleavage came to 0.02.

With A11U A26C, the self-cleavage is 0.16.

For the variant A11U A26G, the self-cleavage was 0.13.

For the variant A11U A26U, the self-cleavage amounted to 0.12.

Consider A11U A14U, for which the self-cleavage was 0.08.

As to A11U A14G, the self-cleavage was 0.03.

Consider A11U A14C, for which the self-cleavage is 0.01.

As to A11G U43C, the self-cleavage turned out to be 0.02.

As for A11G U43A, the self-cleavage is 0.01.

In the case of A11G U43G, the self-cleavage is 0.

For C10U A26U, the self-cleavage was 0.31.

On to C10U A26C, for which the self-cleavage amounted to 0.31.

In the case of C10U A26G, the self-cleavage worked out at 0.4.

A11G C45U: the self-cleavage was 0.03.

For A11G C45A, the self-cleavage worked out at 0.03.

For A11G C45G, the self-cleavage was 0.03.

As for A11C G29A, the self-cleavage is 0.06.

As to A11C G29U, the self-cleavage came out at 0.07.

As to A11C G29C, the self-cleavage amounted to 0.05.

On to C10U C23U, for which the self-cleavage stood at 0.43.

Regarding C10U C23A, the self-cleavage worked out at 0.43.

With C10U C23G, the self-cleavage is 0.26.

In the case of A11C G40A, the self-cleavage was 0.02.

For A11C G40C, the self-cleavage is 0.04.

On to A11C G40U, for which the self-cleavage was 0.02.

For A11G G40C, the self-cleavage is 0.02.

With A11G G40A, the self-cleavage stood at 0.03.

A11G G40U: the self-cleavage was found to be 0.03.

A11G C46G: the self-cleavage came to 0.02.

A11G C46A: the self-cleavage was found to be 0.04.

On to A11G C46U, for which the self-cleavage came out at 0.02.

For the variant A11C A24C, the self-cleavage came to 0.04.

A11C A24U: the self-cleavage came to 0.11.

As for A11C A24G, the self-cleavage was determined as 0.06.

With C10U C45U, the self-cleavage is 0.23.

For the variant C10U C45G, the self-cleavage is 0.15.

On to C10U C45A, for which the self-cleavage amounted to 0.15.

Take C10U C15G: the self-cleavage stood at 0.05.

With C10U C15A, the self-cleavage stood at 0.06.

Take C10U C15U: the self-cleavage is 0.28.

As for A11C C13U, the self-cleavage was determined as 0.03.

With A11C C13A, the self-cleavage was 0.03.

Regarding A11C C13G, the self-cleavage came out at 0.03.

Consider C10U U20C, for which the self-cleavage amounted to 0.28.

Turning to C10U U20G, the self-cleavage came out at 0.18.

For the variant C10U U20A, the self-cleavage amounted to 0.18.

With A11G A39C, the self-cleavage stood at 0.04.

Take A11G A39U: the self-cleavage turned out to be 0.05.

With A11G A39G, the self-cleavage was 0.03.

Consider C10U G33C, for which the self-cleavage was determined as 0.04.

As to C10U G33U, the self-cleavage amounted to 0.04.

Consider C10U G33A, for which the self-cleavage was found to be 0.05.

In the case of A11G G17C, the self-cleavage is 0.04.

Regarding A11G G17U, the self-cleavage was found to be 0.03.

In the case of A11G G17A, the self-cleavage was 0.04.

For the variant A11G A12U, the self-cleavage came out at 0.04.

For the variant A11G A12C, the self-cleavage worked out at 0.02.

For A11G A12G, the self-cleavage stood at 0.02.

For A11G A16U, the self-cleavage was determined as 0.03.

Take A11G A16G: the self-cleavage was 0.02.

As to A11G A16C, the self-cleavage came out at 0.02.

In the case of A11C A25U, the self-cleavage came out at 0.09.

A11C A25C: the self-cleavage was found to be 0.09.

As for A11C A25G, the self-cleavage was determined as 0.08.

On to A11G, for which the self-cleavage was found to be 0.04.

For the variant A11U, the self-cleavage was determined as 0.15.

Turning to A11C, the self-cleavage amounted to 0.08.

For A11G C15A, the self-cleavage worked out at 0.02.

On to A11G C15U, for which the self-cleavage came out at 0.03.

Consider A11G C15G, for which the self-cleavage stood at 0.03.

On to A11C A41C, for which the self-cleavage worked out at 0.01.

On to A11C A41U, for which the self-cleavage is 0.04.

A11C A41G: the self-cleavage came out at 0.03.

Regarding A11C A39C, the self-cleavage turned out to be 0.02.

As for A11C A39U, the self-cleavage amounted to 0.03.

For A11C A39G, the self-cleavage was found to be 0.03.

Take C10U G17U: the self-cleavage was 0.33.

As for C10U G17C, the self-cleavage turned out to be 0.61.

On to C10U G17A, for which the self-cleavage turned out to be 0.34.

A11U A41C: the self-cleavage was found to be 0.04.

Turning to C10U G19C, the self-cleavage came out at 0.24.

For C10U G19A, the self-cleavage is 0.32.

For the variant C10U G19U, the self-cleavage is 0.21.

A11G A14U: the self-cleavage came out at 0.03.

In the case of A11G A14C, the self-cleavage was found to be 0.02.

Consider A11G A14G, for which the self-cleavage was 0.02.

In the case of C10U U32A, the self-cleavage turned out to be 0.08.

As for C10U U32G, the self-cleavage came out at 0.12.

For C10U U32C, the self-cleavage worked out at 0.1.

As to A11C G22U, the self-cleavage was 0.07.

Turning to A11C G22C, the self-cleavage was 0.04.

For the variant A11C G22A, the self-cleavage turned out to be 0.12.

As for C10U U38A, the self-cleavage was determined as 0.04.

For the variant C10U U38C, the self-cleavage was determined as 0.17.

On to C10U U38G, for which the self-cleavage amounted to 0.03.

A11U A16G: the self-cleavage was 0.04.

Take A11U A16C: the self-cleavage stood at 0.02.

Consider A11U A16U, for which the self-cleavage stood at 0.03.

For A11C G27U, the self-cleavage turned out to be 0.05.

For the variant A11C G27C, the self-cleavage was found to be 0.04.

For A11C G27A, the self-cleavage came to 0.11.

In the case of A11C A14C, the self-cleavage came to 0.02.

For the variant A11C A14G, the self-cleavage was 0.04.

For the variant A11C A14U, the self-cleavage was determined as 0.03.

As for C10U G22C, the self-cleavage came out at 0.18.

Take C10U G22U: the self-cleavage stood at 0.42.

On to C10U G22A, for which the self-cleavage is 0.25.

For A11C U20C, the self-cleavage came to 0.02.

Take A11C U20G: the self-cleavage was 0.04.

Turning to A11C U20A, the self-cleavage turned out to be 0.02.

Take A11C U34G: the self-cleavage was 0.04.

Turning to A11C U34C, the self-cleavage came out at 0.04.

Take A11C U34A: the self-cleavage worked out at 0.02.

In the case of C10U A16C, the self-cleavage is 0.06.

Take C10U A16G: the self-cleavage came out at 0.19.

Take C10U A16U: the self-cleavage is 0.19.

For A11G G22C, the self-cleavage is 0.02.

As for A11G G22A, the self-cleavage is 0.03.

A11G G22U: the self-cleavage amounted to 0.05.

Take C10U G27A: the self-cleavage was found to be 0.27.

With C10U G27C, the self-cleavage came to 0.23.

In the case of C10U G27U, the self-cleavage stood at 0.31.

As for A11U A39G, the self-cleavage is 0.06.

A11U A39C: the self-cleavage turned out to be 0.07.

Take A11U A39U: the self-cleavage was found to be 0.05.

On to A11G U34G, for which the self-cleavage is 0.03.

As to A11G U34A, the self-cleavage was determined as 0.03.

With A11G U34C, the self-cleavage was found to be 0.03.

As to C10U G40A, the self-cleavage is 0.02.

Regarding C10U G40U, the self-cleavage is 0.06.

For the variant C10U G40C, the self-cleavage is 0.04.

For the variant C10U C13G, the self-cleavage was 0.09.

Take C10U C13A: the self-cleavage stood at 0.06.

Regarding C10U C13U, the self-cleavage came to 0.06.

As for C10U A39U, the self-cleavage worked out at 0.37.

For the variant C10U A39C, the self-cleavage was 0.17.

For the variant C10U A39G, the self-cleavage worked out at 0.08.

In the case of A11C A26C, the self-cleavage was determined as 0.03.

A11C A26G: the self-cleavage was found to be 0.05.

Take A11C A26U: the self-cleavage was 0.11.

As for A11G U38C, the self-cleavage amounted to 0.03.

As to A11G U38G, the self-cleavage turned out to be 0.02.

For A11G U38A, the self-cleavage worked out at 0.02.

Turning to C10U G36A, the self-cleavage was 0.08.

Consider C10U G36C, for which the self-cleavage worked out at 0.05.

As to C10U G36U, the self-cleavage turned out to be 0.03.

Consider C10U G35C, for which the self-cleavage turned out to be 0.04.

Consider C10U G35U, for which the self-cleavage was found to be 0.05.

Regarding C10U G35A, the self-cleavage came to 0.08.

For C10U G29U, the self-cleavage came out at 0.39.

On to C10U G29A, for which the self-cleavage came to 0.18.

Turning to C10U G29C, the self-cleavage came out at 0.2.
